Legend:
GAPDH = GAPDH (human, UniProt P04406); assay: yeast
Streptavidin-PE = Streptavidin-PE (Streptomyces avidinii, UniProt P22629); assay: yeast
TrkB [1] = molecular target: T1, TrkB (human, UniProt Q16620); assay: yeast
TrkB [2] = molecular target: T1, TrkB; assay: yeast; remark: listed apart in the source
TrkA/Fc = molecular target: T2, TrkA/Fc (human, UniProt P04629); assay: yeast
T2 chain: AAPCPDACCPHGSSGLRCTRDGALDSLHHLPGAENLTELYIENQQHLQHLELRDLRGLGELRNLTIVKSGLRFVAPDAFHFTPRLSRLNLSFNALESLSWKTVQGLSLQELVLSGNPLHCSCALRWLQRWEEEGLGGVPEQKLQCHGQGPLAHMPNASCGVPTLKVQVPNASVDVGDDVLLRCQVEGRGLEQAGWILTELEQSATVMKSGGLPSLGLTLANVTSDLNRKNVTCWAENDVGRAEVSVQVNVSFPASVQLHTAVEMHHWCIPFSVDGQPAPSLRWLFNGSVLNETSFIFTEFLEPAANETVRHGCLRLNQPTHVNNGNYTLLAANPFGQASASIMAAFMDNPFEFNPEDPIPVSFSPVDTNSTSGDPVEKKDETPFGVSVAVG

TrkB [3] = molecular target: T1, TrkB; assay: competition, solution phase
TrkC/Fc = TrkC/Fc (human, UniProt Q16288); assay: yeast
TrkB [4] = molecular target: T1, TrkB; assay: yeast; remark: listed apart in the source
TrkB [5] = molecular target: T1, TrkB; assay: FACS, soluble GFAb on TrkB-loaded beads

T1 sequence (Q16620 32-430): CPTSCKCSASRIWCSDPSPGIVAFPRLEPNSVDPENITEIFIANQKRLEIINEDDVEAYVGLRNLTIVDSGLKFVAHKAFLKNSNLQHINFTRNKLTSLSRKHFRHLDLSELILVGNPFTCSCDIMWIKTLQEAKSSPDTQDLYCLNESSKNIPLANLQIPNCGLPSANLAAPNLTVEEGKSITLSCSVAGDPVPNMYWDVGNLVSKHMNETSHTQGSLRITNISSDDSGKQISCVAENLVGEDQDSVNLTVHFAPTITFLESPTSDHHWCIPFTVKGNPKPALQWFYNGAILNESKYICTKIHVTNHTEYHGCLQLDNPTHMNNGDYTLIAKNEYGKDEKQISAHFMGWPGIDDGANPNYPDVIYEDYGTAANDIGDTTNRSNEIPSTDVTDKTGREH
Chain of GAPDH (P04406 2-335): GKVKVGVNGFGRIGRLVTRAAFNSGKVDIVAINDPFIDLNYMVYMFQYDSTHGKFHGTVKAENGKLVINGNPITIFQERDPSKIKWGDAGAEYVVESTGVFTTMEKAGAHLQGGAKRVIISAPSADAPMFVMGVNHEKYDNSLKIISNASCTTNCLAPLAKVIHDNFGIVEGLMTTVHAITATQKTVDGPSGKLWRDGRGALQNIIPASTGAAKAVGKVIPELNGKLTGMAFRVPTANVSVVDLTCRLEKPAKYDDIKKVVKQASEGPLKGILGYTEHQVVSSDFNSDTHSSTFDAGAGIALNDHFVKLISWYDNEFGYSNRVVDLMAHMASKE
Chain of Streptavidin-PE (P22629 37-163): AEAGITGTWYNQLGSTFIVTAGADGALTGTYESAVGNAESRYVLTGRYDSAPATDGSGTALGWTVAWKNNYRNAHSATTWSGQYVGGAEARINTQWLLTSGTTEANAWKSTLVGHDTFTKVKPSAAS
Chain of TrkC/Fc (Q16288 32-429): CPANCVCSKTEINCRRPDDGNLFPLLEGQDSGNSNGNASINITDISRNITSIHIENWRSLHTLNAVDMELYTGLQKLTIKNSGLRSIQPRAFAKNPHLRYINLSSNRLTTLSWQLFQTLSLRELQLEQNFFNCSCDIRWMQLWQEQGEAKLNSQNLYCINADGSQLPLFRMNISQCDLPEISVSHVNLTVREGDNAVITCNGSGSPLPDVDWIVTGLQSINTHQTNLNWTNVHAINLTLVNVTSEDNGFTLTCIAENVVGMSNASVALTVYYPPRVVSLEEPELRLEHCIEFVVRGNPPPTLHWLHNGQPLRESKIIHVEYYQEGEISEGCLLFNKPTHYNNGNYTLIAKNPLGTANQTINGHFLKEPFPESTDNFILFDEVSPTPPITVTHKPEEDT

B1: GFAb G6 (designed binder)
chain 1: not shown
chain 2: RVSRFLLTT
chain 3: KSRIISSQ
For B1, the Kd (GAPDH) was 18 nM.

B2: GFAb 1.3 (designed binder)
chain 1: not shown
chain 2: AISRSFFST
chain 3: IRNLKYTN
modifications: conjugate with phycoerythrin
B2 showed a Kd (Streptavidin-PE) of 70 nM.

B3: T3 102-103 loop only (designed binder)
chain 1: not shown
chain 2: VINPFTVRS
chain 3: SRERDYRLDYTR
Binder B3 has a Kd (TrkB [1]) of 19 nM.

B4: GFAb 2.17 (designed binder)
chain 1: not shown
chain 2: KARMRLFLM
chain 3: EYGDTLLS
modifications: conjugate with phycoerythrin
For B4, the Kd (Streptavidin-PE) was 110 nM.

B5: GFAb G7 (designed binder)
chain 1: not shown
chain 2: NVIYPFLYA
chain 3: RVTKTKHK
In the case of B5, the Kd (GAPDH) is reported as > 500 nM.

B6: GFAb 2.7 (designed binder)
chain 1: not shown
chain 2: VFSSLRYHV
chain 3: LRMDDTNP
modifications: conjugate with phycoerythrin
B6 was tested, and the Kd (Streptavidin-PE) was 140 nM.

B7: 20-5-8 scaffold (designed binder)
chain 1: not shown
chain 2: LKQHFWSTPRTTS
chain 3: SRERDYRLDYTR
B7: no binding (TrkB [2]).

B8: GFAb G4 (designed binder)
chain 1: not shown
chain 2: RGVSKSFLL
chain 3: QGITKGYK
In the case of B8, the Kd (GAPDH) is reported as > 500 nM.

B9: GFAb G8 (designed binder)
chain 1: not shown
chain 2: SHCLFRKCY
chain 3: ARSIRMKV
B9 was tested, and the Kd (GAPDH) was > 500 nM.

B10: T3 172-173 loop only (designed binder)
chain 1: not shown
chain 2: LKQHFWSTPRTTS
chain 3: NAWVVHRR
Work on B10 yielded a Kd (TrkB [1]) of 300 nM.

B11: GFAb T3 (designed binder)
chain 1: not shown
chain 2: VINPFTVRS
chain 3: NAWVVHRR
In the case of B11, the binding result (TrkA/Fc) is reported as “no binding”, the Kd (TrkB [3]) is reported as ~10 nM and the binding result (TrkC/Fc) is reported as “no binding”. The Kd (TrkB [4]) was 3.2 nM, the Kd (TrkB [5]) was 34 nM and the Kd (TrkB [1]) was 2 nM.

Reference: patent US8754193 (dated 2014)
